Source: patent publication CN113797333A (SHANGHAI JUNSHI BIOSCIENCES CO LTD; JUNMENG BIOSCIENCES CO …, dated 2021)
“And” between values parts separate entries of the source, which are not always exact repeats. Equal entries are not always repeated.

Target: 全序列COVID-19刺突蛋白 (on COVID-19 pseudovirus) (COVID-19 (SARS-CoV-2), UniProt P0DTC2 14-1273)
Assay: cell-based or functional assay

B1: 人源化单克隆抗体CB6 (antibody, V domains shown)
VH: EVQLVESGGGLVQPGGSLRLSCAASGFTVSSNYMSWVRQAPGKGLEWVSVIYSGGSTFYADSVKGRFTISRDNSMNTLFLQMNSLRAEDTAVYYCARVLPMYGDYLDYWGQGTLVTVSS
VL: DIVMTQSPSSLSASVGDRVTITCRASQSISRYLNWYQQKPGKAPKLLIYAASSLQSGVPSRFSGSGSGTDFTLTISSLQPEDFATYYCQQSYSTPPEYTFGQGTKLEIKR
IC50 of inhibition of COVID-19 pseudovirus infection of Huh-7 cells (luciferase): 0.183 nM and 0.0275 μg/ml
